Measured values from publication PMC4972137 (The EMBO Journal, 2016).

B1: NavMs sodium channel pore protein (wild-type pore of NavMs from M. marinus MC-1 with its complete C-terminal domain) (domain or fragment, Magnetococcus marinus MC-1)
chain: GVGSVAALLTVVFYIAAVMATNLYGATFPEWFGDLSKSLYTLFQVMTLESWSMGIVRPVMNVHPNAWVFFIPFIMLTTFTVLNLFIGIIVDAMAITKEQEEEAKTGHHQEPISQTLLHLGDRLDRIEKQLAQNNELLQRQQPQKK
B2: NavMs sodium channel pore protein, E178D selectivity filter mutant (domain or fragment, Magnetococcus marinus MC-1)
chain: GVGSVAALLTVVFYIAAVMATNLYGATFPEWFGDLSKSLYTLFQVMTLDSWSMGIVRPVMNVHPNAWVFFIPFIMLTTFTVLNLFIGIIVDAMAITKEQEEEAKTGHHQEPISQTLLHLGDRLDRIEKQLAQNNELLQRQQPQKK

Target: the molecule itself
Experiment: crystal structure; NavMs pore crystals grown in the presence of sodium ions; open conformation; four identical chains arranged in two half-tetramers, with the tetramers completed by crystal symmetry

Row | Protein | stoichiometry N
1 | B1 | 4
2 | B2 | 4
